Measured values published in patent publication US20150168399A1 (INSERM INSTITUT NATIONAL DE LA SANTE ET DE LA RECHERCHE …, published 2015).
Values belong to the molecule of their own block, whether it stands above or below them.

What was measured:
[1] = biological target: human leukocyte integrin LFA-1 (CD11a/CD18) on Jurkat cells or human NK cells (human) (UniProt P20701); assay: cell-based or functional assay
[2] = biological target: recombinant human endocan (Human active Endocan 1-165, SEQ ID NO: 1) (human) (UniProt Q9NQ30); assay: cell-based or functional assay
[3] = biological target: T1, recombinant human endocan (Human active Endocan 1-165, SEQ ID NO: 1)
T1 chain: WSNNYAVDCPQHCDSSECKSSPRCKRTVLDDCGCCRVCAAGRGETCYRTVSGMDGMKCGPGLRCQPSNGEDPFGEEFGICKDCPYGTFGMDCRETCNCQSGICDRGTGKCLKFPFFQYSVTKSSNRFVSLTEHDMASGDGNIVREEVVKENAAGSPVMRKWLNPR

[4] = biological target: T2, human leukocyte integrin LFA-1 (CD11a/CD18) on Jurkat cells or human NK cells (human, UniProt P20701 26-1170; P05107 23-769); assay: co-immunoprecipitation from Jurkat lysates with HI111 and mab24
T2 construct: whole, on cells; also called CD11a/CD18 integrin; endocan's receptor
T2 sequence (P20701 26-1170, chain 1 of 2): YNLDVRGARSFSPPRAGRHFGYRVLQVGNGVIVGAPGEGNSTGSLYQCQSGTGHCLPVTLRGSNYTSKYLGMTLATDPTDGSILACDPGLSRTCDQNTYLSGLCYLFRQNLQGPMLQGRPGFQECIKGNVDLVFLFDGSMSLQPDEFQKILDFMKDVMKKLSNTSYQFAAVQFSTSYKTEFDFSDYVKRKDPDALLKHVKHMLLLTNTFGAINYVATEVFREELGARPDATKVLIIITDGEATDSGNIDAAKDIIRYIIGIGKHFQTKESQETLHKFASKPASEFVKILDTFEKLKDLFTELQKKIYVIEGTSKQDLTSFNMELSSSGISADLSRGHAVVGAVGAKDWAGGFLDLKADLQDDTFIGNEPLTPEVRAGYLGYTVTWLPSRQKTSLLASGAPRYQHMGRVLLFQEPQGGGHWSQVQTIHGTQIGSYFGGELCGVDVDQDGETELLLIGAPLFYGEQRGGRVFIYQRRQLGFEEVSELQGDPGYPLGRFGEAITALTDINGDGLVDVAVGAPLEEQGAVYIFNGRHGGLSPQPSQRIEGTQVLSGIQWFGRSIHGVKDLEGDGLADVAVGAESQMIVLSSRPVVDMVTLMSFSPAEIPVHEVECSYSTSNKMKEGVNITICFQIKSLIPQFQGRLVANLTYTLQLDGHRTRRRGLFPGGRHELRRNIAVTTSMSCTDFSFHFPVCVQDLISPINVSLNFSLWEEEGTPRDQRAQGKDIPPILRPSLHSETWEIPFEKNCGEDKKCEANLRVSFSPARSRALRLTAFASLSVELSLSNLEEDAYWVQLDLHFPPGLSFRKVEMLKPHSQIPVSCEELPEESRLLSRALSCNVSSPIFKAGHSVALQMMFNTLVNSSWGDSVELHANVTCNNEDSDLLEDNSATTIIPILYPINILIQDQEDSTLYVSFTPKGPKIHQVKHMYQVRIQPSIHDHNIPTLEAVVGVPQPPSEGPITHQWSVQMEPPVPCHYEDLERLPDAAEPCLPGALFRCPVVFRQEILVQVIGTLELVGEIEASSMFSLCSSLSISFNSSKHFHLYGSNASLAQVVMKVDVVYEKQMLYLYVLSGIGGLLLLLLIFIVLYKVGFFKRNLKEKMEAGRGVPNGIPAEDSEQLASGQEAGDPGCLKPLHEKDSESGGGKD
T2 sequence (P05107 23-769, chain 2 of 2): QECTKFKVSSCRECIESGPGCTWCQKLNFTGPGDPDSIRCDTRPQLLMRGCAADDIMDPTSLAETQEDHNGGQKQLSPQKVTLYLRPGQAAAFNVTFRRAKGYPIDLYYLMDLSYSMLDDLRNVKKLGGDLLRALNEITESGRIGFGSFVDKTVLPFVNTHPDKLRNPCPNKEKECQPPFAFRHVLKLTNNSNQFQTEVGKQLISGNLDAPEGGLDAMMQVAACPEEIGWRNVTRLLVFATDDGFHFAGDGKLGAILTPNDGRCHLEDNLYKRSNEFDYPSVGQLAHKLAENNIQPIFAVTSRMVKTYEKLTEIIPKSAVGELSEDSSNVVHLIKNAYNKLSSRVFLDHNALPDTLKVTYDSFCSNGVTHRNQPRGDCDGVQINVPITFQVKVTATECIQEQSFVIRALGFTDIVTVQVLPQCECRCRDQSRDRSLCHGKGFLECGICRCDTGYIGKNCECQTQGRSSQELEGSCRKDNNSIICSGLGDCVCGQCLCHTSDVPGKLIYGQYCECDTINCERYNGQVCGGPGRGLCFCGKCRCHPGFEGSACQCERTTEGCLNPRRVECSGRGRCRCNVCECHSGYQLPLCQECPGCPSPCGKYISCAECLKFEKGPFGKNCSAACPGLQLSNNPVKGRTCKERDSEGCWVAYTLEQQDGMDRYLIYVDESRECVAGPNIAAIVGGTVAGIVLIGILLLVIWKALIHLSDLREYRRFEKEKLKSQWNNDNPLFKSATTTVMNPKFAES
Method: FIG. 4B: Non glycanable endocan is co-immunoprecipitated with anti-LFA-1 mabs. Bound endocan from 20 to 40×10⁶ Jurkat cells were incubated with a mab against endocan (MEC36), mabs against LFA-1 (HI111 and mab24), and anti-CD3 mab as control antibody. Bound endocan is expressed in pg per 10⁶ cells.
Immunoprecipitation of Jurkat lysates containing endocan or non glycanated endocan S137A/E was performed as previously described in Bechard D et al (J Immunol. 2001; 167:3099-3106) using anti-CD11 a mabs HI111 (BD Biosciences), and mab24 (a generous gift of Dr Nancy Hogg from Leukocyte Adhesion Laboratory, Cancer Research UK, London Research Institute, London, UK).

human leukocyte integrin LFA-1 (CD11a/CD18) on Jurkat cells or human NK cells (human), sequence (P20701 26-1170, chain 1 of 2): as the sequence (P20701 26-1170, chain 1 of 2) above
human leukocyte integrin LFA-1 (CD11a/CD18) on Jurkat cells or human NK cells (human), sequence (P05107 23-769, chain 2 of 2, further chain): as the sequence (P05107 23-769, chain 2 of 2) above

B1: purified cathepsin G (Sigma) (protein)
chain: IIGGRESRPHSRPYMAYLQIQSPAGQSRCGGFLVREDFVLTAAHCWGSNINVTLGAHNIQRRENTQQHITARRAIRHPQYNQRTIQNDIMLLQLSRRVRRNRNVNPVALPRAQEGLRPGTLCTVAGWGRVSMRRGTDTLREVQLRVQRDRQCLRIFGSYDPRRQICVGDRRERKAAFKGDSGGPLLCNNVAHGIVSYGKSSGVPPEVFTRVSSFLPWIRTTMRS
- minimal concentration of cathepsin G required to cleave completely endocan in 24 h [3]: 0.01 µg/mL
- reduction of the detection of MEP14-bound endocan after two hours with cathepsin G at 37° C. [3]: from 70% to 100%

B3: purified elastase (Sigma) (protein)
chain: IVGGRRARPHAWPFMVSLQLRGGHFCGATLIAPNFVMSAAHCVANVNVRAVRVVLGAHNLSRREPTRQVFAVQRIFENGYDPVNLLNDIVILQLNGSATINANVQVAQLPAQGRRLGNGVQCLAMGWGLLGRNRGIASVLQELNVTVVTSLCRRSNVCTLVRGRQAGVCFGDSGSPLVCNGLIHGIASFVRGGCASGLYPDAFAPVAQFVNWIDSIIQ
- minimal concentration of elastase required for near complete degradation of endocan [3]: 0.1 µg/mL

Results, then the molecule that gave them:

- decrease in transendothelial migration of NK cells through TNF-stimulated HUVEC [1]: 82%
Molecule: monoclonal anti-human LFA-1 clone HI111 (antibody)

- loss of the 50 kDa band of endocan [2]: 1 µg/mL
Molecule: purified proteinase 3 (Sigma) (from UniProt P24158 28-248) (enzyme)

- binding result [4]: binds
B2: non glycanable endocan mutant (S137A/endocan) (ligand)
chain: WSNNYAVDCPQHCDSSECKSSPRCKRTVLDDCGCCRVCAAGRGETCYRTVSGMDGMKCGPGLRCQPSNGEDPFGEEFGICKDCPYGTFGMDCRETCNCQSGICDRGTGKCLKFPFFQYSVTKSSNRFVSLTEHDMAAGDGNIVREEVVKENAAGSPVMRKWLNPR
notes: Produced in 293 cells; lacks the glycan chain; also called non glycanated endocan S137A/E
